Measurements from PMC10397247.
Where two headings read alike, the source gives them in different places.

Tests used:
[1] = molecular target: T1, P2-AA-1HAA-S; experiment: two-hybrid library CCmax; conditions: mean of both orientations;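 also: natural log of median RNA to DNA barcode read ratio; higher means stronger binding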
T1 chain: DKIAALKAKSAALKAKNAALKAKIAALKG

[2] = molecular target: T2, P2-AA-1HAA-E; experiment: two-hybrid library CCmax; conditions: mean of both orientations;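 also: natural log of median RNA to DNA barcode read ratio; higher means stronger binding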
T2 chain: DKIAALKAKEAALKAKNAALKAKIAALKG

[3] = molecular target: T3, P2-AA-1HAA-V; experiment: two-hybrid library CCmax; conditions: mean of both orientations;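 also: natural log of median RNA to DNA barcode read ratio; higher means stronger binding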
T3 chain: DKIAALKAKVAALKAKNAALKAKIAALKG

[4] = molecular target: T4, P2-AA-1HAA-T; experiment: two-hybrid library CCmax; conditions: mean of both orientations;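 also: natural log of median RNA to DNA barcode read ratio; higher means stronger binding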
T4 chain: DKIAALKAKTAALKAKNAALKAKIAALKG

[5] = molecular target: T5, P2-AA-1HAA-D; experiment: two-hybrid library CCmax;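 also: natural log of median RNA to DNA barcode read ratio; higher means stronger binding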
T5 chain: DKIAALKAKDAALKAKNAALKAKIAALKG

[6] = molecular target: T6, P2-AA-1HAA-R; experiment: two-hybrid library CCmax; conditions: mean of both orientations;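 also: natural log of median RNA to DNA barcode read ratio; higher means stronger binding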
T6 chain: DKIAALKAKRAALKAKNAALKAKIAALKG

[7] = molecular target: T7, P2-AA-1HAA-I; experiment: two-hybrid library CCmax; conditions: mean of both orientations
T7 chain: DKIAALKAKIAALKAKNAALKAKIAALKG

[8] = molecular target: T8, O5-bP; experiment: two-hybrid library CCNG1
T8 chain: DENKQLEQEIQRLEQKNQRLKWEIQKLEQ

[9] = molecular target: T9, O7-bP; experiment: two-hybrid library CCNG1
T9 chain: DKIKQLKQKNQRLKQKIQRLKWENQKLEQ

[10] = molecular target: T10, O8-bP; experiment: two-hybrid library CCNG1
T10 chain: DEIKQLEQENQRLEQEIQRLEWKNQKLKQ

[11] = molecular target: T11, O6-bP; experiment: two-hybrid library CCNG1
T11 chain: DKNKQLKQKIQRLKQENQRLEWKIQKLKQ

[12] = molecular target: T12, O9-bP; experiment: two-hybrid library CCNG1
T12 chain: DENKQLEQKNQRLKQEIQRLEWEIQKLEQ

[13] = molecular target: T13, O4-bP; experiment: two-hybrid library CCNG1
T13 chain: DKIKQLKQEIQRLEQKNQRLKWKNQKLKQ

[14] = molecular target: T14, 4H492-bN; experiment: two-hybrid library CCNG1
T14 chain: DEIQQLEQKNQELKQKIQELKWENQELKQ

[15] = molecular target: T15, 4H3277-bN; experiment: two-hybrid library CCNG1
T15 chain: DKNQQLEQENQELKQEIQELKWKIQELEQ

[16] = molecular target: T16, 4H348-bN; experiment: two-hybrid library CCNG1
T16 chain: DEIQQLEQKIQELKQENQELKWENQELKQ

[17] = molecular target: T17, 4H3613-bN; experiment: two-hybrid library CCNG1
T17 chain: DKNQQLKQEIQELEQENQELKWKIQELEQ

[18] = molecular target: T18, 4H3462-bN; experiment: two-hybrid library CCNG1
T18 chain: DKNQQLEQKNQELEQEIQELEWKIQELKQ

[19] = molecular target: T19, 4H754-bN; experiment: two-hybrid library CCNG1
T19 chain: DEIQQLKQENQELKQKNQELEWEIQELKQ

[20] = molecular target: T20, 4H626-bN; experiment: two-hybrid library CCNG1
T20 chain: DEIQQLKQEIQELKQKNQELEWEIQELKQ

[21] = molecular target: T21, 4H3926-bN; experiment: two-hybrid library CCNG1
T21 chain: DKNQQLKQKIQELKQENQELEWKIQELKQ

[22] = molecular target: T22, 4H40-bN; experiment: two-hybrid library CCNG1
T22 chain: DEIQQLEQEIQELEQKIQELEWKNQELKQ

[23] = molecular target: T23, 4H477-bN; experiment: two-hybrid library CCNG1
T23 chain: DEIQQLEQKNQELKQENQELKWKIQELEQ

[24] = molecular target: T24, 4H906-bN; experiment: two-hybrid library CCNG1
T24 chain: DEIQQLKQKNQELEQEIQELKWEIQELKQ

[25] = molecular target: T25, 4H741-bN; experiment: two-hybrid library CCNG1
T25 chain: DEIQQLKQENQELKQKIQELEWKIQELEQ

[26] = molecular target: T26, 4H3497-bN; experiment: two-hybrid library CCNG1
T26 chain: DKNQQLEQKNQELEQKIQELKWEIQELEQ

[27] = molecular target: T27, 4H591-bN; experiment: two-hybrid library CCNG1
T27 chain: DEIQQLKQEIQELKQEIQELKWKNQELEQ

[28] = molecular target: T28, 4H3298-bN; experiment: two-hybrid library CCNG1
T28 chain: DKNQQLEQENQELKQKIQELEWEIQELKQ

[29] = molecular target: T29, 4H3628-bN; experiment: two-hybrid library CCNG1
T29 chain: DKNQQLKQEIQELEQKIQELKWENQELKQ

[30] = molecular target: T30, 4H932-bH; experiment: two-hybrid library CCNG1
T30 chain: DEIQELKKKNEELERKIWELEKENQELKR

[31] = molecular target: T31, 4H3381-bH; experiment: two-hybrid library CCNG1
T31 chain: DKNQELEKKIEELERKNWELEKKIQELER

[32] = molecular target: T32, 4H40-bH; experiment: two-hybrid library CCNG1
T32 chain: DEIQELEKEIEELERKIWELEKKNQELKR

[33] = molecular target: T33, 4H796-bH; experiment: two-hybrid library CCNG1
T33 chain: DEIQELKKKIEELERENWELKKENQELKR

[34] = molecular target: T34, 4H4073-bA; experiment: two-hybrid library CCNG1
T34 chain: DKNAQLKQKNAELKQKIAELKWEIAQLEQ

[35] = molecular target: T35, 4H2760-bH; experiment: two-hybrid library CCNG1
T35 chain: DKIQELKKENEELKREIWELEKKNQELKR

[36] = molecular target: T36, 4H2859-bH; experiment: two-hybrid library CCNG1
T36 chain: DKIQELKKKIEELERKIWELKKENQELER

[37] = molecular target: T37, 4H730-bH; experiment: two-hybrid library CCNG1
T37 chain: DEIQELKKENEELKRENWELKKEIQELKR

[38] = molecular target: T38, 4H2931-bH; experiment: two-hybrid library CCNG1
T38 chain: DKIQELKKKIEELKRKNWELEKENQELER

[39] = molecular target: T39, 4H949-bH; experiment: two-hybrid library CCNG1
T39 chain: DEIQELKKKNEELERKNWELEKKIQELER

[40] = molecular target: T40, 4H3297-bH; experiment: two-hybrid library CCNG1
T40 chain: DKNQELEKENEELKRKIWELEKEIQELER

[41] = molecular target: T41, 4H3041-bH; experiment: two-hybrid library CCNG1
T41 chain: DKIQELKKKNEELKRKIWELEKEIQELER

[42] = molecular target: T42, 4H349-bH; experiment: two-hybrid library CCNG1
T42 chain: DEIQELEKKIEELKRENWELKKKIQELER

[43] = molecular target: T43, 4H56-bH; experiment: two-hybrid library CCNG1
T43 chain: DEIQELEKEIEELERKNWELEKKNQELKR

[44] = molecular target: T44, 4H3364-bH; experiment: two-hybrid library CCNG1
T44 chain: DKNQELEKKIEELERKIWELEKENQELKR

[45] = molecular target: T45, O16-bN; experiment: two-hybrid library CCNG1
T45 chain: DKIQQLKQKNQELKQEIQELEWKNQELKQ

In the case of DEIAALEAEKAALEAENAALEAEIAALEG [P1-AA-1HAA-K], the interaction score [1] is reported as 1.97, the interaction score [2] is reported as 0.472 and the interaction score [3] is reported as 2.1. For the same binder, the interaction score [4] was 2.06, the interaction score ([5]; mean of both orientations) was 0.24 and the interaction score [6] was 1.56. The interaction score [7] was 1.82.

DEIAALEAEHAALEAENAALEAEIAALEG [P1-AA-1HAA-H] was tested, and the interaction score [1] was 1.91, the interaction score [2] was 0.913 and the interaction score [3] was 1.33. The interaction score [4] was 2.13, the interaction score [5] was 1.5 and the interaction score [6] was 1.34. For the same binder, the interaction score [7] was 1.98.

DKIKQLKQEIQRLEQKNQRLKWKNQKLKQ [O4-bP] gave an interaction score [8] of -0.998, an interaction score [9] of -0.866 and an interaction score [10] of -2.5. The interaction score [11] was -0.676, the interaction score [12] was -0.425 and the interaction score [13] was -0.959.

DKNQQLEQENQELKQEIQELKWKIQELEQ [4H3277-bN] was tested, and the interaction score [14] was -1.45, the interaction score [15] was 1.19 and the interaction score [16] was -1.89. For the same binder, the interaction score [17] was -1.08, the interaction score [18] was -1 and the interaction score [19] was -1.54. The interaction score [20] was -0.819, the interaction score [21] was -0.4 and the interaction score [22] was 0.44. The interaction score [23] was -1.11, the interaction score [24] was -1.79 and the interaction score [25] was -0.405. The interaction score [26] was -0.895, the interaction score [27] was -1.66 and the interaction score [28] was -0.281. It also gave an interaction score [29] of -0.458.

With DKIQELKKENEELKREIWELEKKNQELKR [4H2760-bH] the interaction score [30] was -1.86, the interaction score [31] was 0.571 and the interaction score [32] was -1.45. The interaction score [33] was 0.41, the interaction score [34] was -0.277 and the interaction score [35] was 1.46. For the same binder, the interaction score [36] was 0.64, the interaction score [37] was -0.92 and the interaction score [38] was -0.365. For the same binder, the interaction score [39] was -0.189, the interaction score [40] was 1.12 and the interaction score [41] was 0.73. It also gave an interaction score [42] of 0.171, an interaction score [43] of -1.85 and an interaction score [44] of 0.427. It also gave an interaction score [45] of 0.693.
